From publication PMC2708863 (The Journal of Biological Chemistry, 2009)
Like-named read-outs stand apart in the source and are kept apart here.

B1: ^3FnIII, third type III domain of human fibronectin (residues 810–900) (domain or fragment)
chain: not shown
B2: ^2–3FnI, human fibronectin residues 93–182 (domain or fragment, UniProt P02751 93-182, looked up)
chain: AEETCFDKYTGNTYRVGDTYERPKDSMIWDCTCIGAGRGRISCTIANRCHEGGQSYKIGDTWRRPHETGGYMLECVCLGNGKGEWTCKPI

Key:
Experiment in all cases: NMR titration
[1] = biological target: T1, ^4–5FnI, human fibronectin residues 183–275 (human, UniProt P02751 183-275)
T1 sequence (P02751 183-275): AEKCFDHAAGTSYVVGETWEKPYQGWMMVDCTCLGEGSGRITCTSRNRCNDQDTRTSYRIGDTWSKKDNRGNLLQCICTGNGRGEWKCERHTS

^4–5FnI (R222A) = ^4–5FnI (R222A) (human, UniProt P02751 183-275, R222A)
Chain of ^4–5FnI (R222A) (P02751 183-275 R222A): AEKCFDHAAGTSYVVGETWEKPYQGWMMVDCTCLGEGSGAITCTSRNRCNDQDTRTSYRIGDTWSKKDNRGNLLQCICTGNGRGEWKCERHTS

[2] = biological target: T1, ^4–5FnI, human fibronectin residues …; remark: listed apart in the source
[3] = biological target: B1

Row | Kd [1] | fold reduction of affinity against the wild-type interaction (^4–5FnI (R222A)) | Kd [2] | Kd [3] | Binder
1 | 800 ± 46 µM | > 20 fold | 146 ± 9 µM | – | B1
2 | – | – | – | 820 ± 70 µM | B2
